According to article PMC4193804:

How the values were obtained:
[1] = target: Hy.1B11 TCR with biotinylated C-terminal BirA tag (human); experiment: SPR
[2] = target: HLA-DQ1 (DQA1*0102, DQB1*0502), supplied as DQ1/CLIP for peptide-binding assays (human); experiment: ELISA
[3] = target: HLA-DQ1 (DQA1*0102, DQB1*0502) loaded with the myelin basic protein peptide (res. 85–99) (human); experiment: SPR

Substance | Kd [1] | other results
HLA-DQ1 (DQA1*0102, DQB1*0502) loaded with the Pseudomonas aeruginosa phosphomannomutase peptide PMM 260–274 (from UniProt P26276 260-274) (peptide-MHC) | 57.3 µM | –
MBP 85–99 analogue peptide with P6 Asn to Asp substitution | – | fold higher affinity than the WT MBP peptide [2]: 10 fold
HLA-DQ1 (DQA1*0102, DQB1*0502) loaded with the myelin basic protein peptide (res. 85–99) (peptide-MHC) | 6.96 µM | –
Hy.1B11 T cell receptor (TCR), wild type, soluble | – | Kd [3]: 14.3 µM
